Data from US20250339531A1 (FRED HUTCHINSON CANCER CENTER, published 2025).

Experiments:
[1] = biological target: T1, Immunoglobulin kappa variable 2-40 (Homo sapiens); test: anti-FLAG co-IP LC-MS, exp 4, +Dox +IFNG
T1 construct: also called IGKV2-40

[2] = biological target: T2, Nuclease-sensitive element-binding protein 1 (Fragment) (Homo sapiens, UniProt P67809 2-324); test: anti-FLAG co-IP LC-MS, exp 4, +Dox +IFNG
T2 construct: also called YBX1

[3] = biological target: T3, Heterogeneous nuclear ribonucleoprotein M (Homo sapiens, UniProt P52272 2-730); test: anti-FLAG co-IP LC-MS, exp 4, +Dox +IFNG
T3 construct: also called HNRNPM
T3 sequence (looked up): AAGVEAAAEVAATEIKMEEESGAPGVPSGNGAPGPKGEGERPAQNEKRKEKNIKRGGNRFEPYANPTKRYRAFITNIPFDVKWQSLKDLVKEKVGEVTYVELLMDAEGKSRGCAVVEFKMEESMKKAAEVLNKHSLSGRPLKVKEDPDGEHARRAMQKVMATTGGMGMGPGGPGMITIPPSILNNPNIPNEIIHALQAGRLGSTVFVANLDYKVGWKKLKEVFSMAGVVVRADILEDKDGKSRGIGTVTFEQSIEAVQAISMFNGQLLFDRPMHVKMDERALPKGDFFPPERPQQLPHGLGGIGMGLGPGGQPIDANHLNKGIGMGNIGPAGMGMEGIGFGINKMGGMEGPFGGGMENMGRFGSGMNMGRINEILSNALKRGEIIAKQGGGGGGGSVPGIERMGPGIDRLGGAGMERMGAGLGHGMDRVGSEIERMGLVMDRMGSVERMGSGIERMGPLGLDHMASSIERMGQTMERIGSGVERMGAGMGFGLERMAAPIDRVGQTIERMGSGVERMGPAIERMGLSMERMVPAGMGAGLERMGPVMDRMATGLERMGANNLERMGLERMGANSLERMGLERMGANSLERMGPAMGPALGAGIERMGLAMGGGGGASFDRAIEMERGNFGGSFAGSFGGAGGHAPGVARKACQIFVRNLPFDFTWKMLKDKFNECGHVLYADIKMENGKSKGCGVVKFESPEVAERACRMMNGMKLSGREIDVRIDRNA

[4] = biological target: T4, Polyadenylate-binding protein 1 (Homo sapiens, UniProt P11940 1-636); test: anti-FLAG co-IP LC-MS, exp 4, +Dox +IFNG
T4 construct: also called PABPC1
T4 sequence (P11940 whole entry): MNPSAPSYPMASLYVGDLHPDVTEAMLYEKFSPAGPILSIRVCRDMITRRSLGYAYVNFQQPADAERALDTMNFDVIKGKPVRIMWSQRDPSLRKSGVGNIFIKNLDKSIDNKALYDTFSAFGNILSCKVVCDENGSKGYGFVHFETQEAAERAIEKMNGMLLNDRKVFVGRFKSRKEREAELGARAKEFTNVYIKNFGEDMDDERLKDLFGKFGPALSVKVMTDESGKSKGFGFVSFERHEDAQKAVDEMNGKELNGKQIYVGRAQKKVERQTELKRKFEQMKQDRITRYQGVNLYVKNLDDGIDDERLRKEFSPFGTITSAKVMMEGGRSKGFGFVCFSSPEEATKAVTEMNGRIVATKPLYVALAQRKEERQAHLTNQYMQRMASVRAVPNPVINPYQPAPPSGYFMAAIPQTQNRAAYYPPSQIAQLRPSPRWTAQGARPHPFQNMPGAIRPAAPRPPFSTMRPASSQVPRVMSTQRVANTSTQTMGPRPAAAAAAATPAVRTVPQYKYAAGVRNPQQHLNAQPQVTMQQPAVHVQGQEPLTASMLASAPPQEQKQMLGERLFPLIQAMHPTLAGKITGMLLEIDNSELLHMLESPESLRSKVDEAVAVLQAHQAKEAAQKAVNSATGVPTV

Nucleolin = biological target: T5, Nucleolin (Homo sapiens, UniProt P19338 2-710); test: anti-FLAG co-IP LC-MS, exp 4, +Dox +IFNG
T5 construct: also called NCL
T5 sequence (P19338 2-710 limits assumed): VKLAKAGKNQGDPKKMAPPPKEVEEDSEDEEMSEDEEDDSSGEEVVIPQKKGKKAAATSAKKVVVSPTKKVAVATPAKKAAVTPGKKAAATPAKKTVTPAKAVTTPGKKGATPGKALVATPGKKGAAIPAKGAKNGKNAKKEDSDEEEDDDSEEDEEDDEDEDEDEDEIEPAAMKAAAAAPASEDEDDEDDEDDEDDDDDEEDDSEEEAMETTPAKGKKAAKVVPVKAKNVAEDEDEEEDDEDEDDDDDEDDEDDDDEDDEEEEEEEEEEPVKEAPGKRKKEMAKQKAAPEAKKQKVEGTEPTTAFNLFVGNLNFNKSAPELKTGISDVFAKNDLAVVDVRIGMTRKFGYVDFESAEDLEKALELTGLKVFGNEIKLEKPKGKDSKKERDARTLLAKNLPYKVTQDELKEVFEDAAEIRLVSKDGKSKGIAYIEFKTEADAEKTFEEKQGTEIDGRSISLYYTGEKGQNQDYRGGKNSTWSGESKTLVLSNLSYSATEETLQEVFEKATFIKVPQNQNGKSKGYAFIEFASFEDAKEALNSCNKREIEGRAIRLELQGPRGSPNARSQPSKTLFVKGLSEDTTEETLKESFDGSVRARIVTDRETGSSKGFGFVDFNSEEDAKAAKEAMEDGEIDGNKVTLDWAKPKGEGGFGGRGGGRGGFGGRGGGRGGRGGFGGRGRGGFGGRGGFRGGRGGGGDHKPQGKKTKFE

[5] = biological target: T6, Cyclin-dependent kinase 4 (Homo sapiens, UniProt P11802 2-303); test: anti-FLAG co-IP LC-MS, exp 4, +Dox +IFNG
T6 construct: also called CDK4
T6 sequence (P11802 2-303 limits assumed): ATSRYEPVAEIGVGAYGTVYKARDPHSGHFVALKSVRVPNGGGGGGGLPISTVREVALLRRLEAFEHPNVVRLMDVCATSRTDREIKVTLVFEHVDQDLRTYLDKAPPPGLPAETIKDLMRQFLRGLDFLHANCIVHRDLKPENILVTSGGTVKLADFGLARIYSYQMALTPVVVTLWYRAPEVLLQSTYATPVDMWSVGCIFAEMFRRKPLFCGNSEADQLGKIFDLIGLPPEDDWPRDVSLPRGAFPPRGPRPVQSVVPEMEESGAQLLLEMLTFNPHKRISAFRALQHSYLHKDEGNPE

[6] = biological target: T7, Signal transducer and activator of transcription 1-alpha/beta (Homo sapiens, UniProt P42224 2-750); test: anti-FLAG co-IP LC-MS, exp 4, +Dox +IFNG
T7 construct: also called STAT1
T7 sequence (looked up): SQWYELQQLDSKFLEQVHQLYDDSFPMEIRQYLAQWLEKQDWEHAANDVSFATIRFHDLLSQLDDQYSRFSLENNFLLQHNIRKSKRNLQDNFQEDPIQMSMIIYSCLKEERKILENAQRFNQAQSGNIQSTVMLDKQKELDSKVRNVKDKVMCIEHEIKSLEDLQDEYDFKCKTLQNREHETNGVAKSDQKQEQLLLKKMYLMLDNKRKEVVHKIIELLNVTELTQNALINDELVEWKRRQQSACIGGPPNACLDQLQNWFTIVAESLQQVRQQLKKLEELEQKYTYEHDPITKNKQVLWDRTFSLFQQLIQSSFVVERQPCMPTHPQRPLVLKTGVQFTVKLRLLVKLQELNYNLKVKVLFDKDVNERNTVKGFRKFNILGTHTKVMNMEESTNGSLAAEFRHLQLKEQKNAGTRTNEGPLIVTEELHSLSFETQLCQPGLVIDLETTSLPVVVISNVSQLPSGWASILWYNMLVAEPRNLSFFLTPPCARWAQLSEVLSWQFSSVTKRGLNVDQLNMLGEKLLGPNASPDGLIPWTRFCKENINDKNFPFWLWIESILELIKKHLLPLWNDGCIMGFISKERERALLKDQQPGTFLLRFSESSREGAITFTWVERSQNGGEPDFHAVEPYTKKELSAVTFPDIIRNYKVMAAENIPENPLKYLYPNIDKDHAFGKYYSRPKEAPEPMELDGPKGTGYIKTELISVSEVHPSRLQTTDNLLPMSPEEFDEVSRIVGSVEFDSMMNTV

[7] = biological target: T8, cDNA FLJ56329, highly similar to Myosin light polypeptide 6 (Homo sapiens); test: anti-FLAG co-IP LC-MS, exp 4, +Dox +IFNG
T8 construct: also called MYL6

[8] = biological target: T9, 3×MYC-STAT1-S727E phosphorylated at Y701 with JAK1 kinase (UniProt P42224 1-750, phosphorylated at Y701 with JAK1 kinase); test: anti-FLAG IP of in vitro translated proteins, with JAK1 treatment, western
T9 construct: In vitro translated in rabbit reticulocyte lysate; not shown: 3×MYC tag
T9 sequence (looked up): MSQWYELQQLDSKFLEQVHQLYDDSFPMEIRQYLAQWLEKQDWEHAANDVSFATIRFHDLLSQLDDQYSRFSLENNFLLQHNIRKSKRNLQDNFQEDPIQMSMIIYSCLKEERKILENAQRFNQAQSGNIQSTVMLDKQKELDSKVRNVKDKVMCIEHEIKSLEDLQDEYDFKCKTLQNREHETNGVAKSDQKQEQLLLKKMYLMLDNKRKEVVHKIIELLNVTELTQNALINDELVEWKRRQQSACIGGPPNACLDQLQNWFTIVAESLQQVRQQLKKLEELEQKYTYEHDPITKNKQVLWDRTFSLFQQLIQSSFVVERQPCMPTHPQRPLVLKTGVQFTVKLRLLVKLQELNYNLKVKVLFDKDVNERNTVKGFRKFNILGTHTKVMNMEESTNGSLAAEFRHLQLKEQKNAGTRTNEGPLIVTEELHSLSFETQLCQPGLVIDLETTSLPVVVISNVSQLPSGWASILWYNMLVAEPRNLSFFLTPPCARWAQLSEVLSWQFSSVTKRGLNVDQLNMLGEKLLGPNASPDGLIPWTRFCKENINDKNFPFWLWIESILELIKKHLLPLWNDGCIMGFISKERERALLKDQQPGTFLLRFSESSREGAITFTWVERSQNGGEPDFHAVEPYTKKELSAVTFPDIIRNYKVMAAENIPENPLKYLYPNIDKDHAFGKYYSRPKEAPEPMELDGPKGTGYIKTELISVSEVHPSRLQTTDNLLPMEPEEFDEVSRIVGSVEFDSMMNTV

T1 sequence (A0A087WW87 20-121): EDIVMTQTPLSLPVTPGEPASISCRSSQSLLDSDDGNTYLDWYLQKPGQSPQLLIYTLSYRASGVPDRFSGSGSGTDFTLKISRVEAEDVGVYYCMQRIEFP
T2 sequence (P67809 2-324 limits assumed): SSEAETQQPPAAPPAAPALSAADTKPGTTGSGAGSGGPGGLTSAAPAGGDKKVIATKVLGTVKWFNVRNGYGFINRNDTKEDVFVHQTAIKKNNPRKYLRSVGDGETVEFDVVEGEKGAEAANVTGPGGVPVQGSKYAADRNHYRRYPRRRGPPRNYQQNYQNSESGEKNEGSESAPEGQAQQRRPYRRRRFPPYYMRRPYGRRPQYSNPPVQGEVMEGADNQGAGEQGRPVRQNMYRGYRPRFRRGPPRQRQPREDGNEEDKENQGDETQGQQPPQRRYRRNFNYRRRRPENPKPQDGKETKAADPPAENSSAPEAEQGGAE

B1: i3XFLAG-NLS-CTDaa154-424 (other)
chain: MDYKDHDGDYKDHDIDYKDDDDKPPKRMRREPKKKRKVGRAPAQAGGLCSAAPGGGHPAPSWVAFAHTGAWGTGLPAPHVPCAPGALPQGAFVSQAARAAPALQPSQAAPAEGISQPAPARGDFAYAAPAPPDGALSHPQAPRWPPHPGKSREDRDPQRDGLPGPCAVAQPGPAQAGPQGQGVLAPPTSQGSPWWGWGRGPQVAGAAWEPQAGAAPPPQPAPPDASASARQGQMQGIPAPSQALQEPAPWSALPCGLLLDELLASPEFLQQAQPLLETEAPGELEASEEAASLEAPLSEEEYRALLEEL
notes: Doxycycline-induced in MB135 cells for co-IP; also called longCTD; iDUX4-CTD
- PSMs [1]: 5 PSMs
- PSMs [2]: 7 PSMs
- PSMs [3]: 2 PSMs
- PSMs [4]: 3 PSMs
- PSMs (Nucleolin): 1 PSMs
- PSMs [5]: 11 PSMs
- PSMs [6]: 19 PSMs
- PSMs [7]: 5 PSMs
- binding result [8]: no binding
